Assay results from patent publication US20150024380A1.

Key:
[1] = biological target: antibodies of human serum sample 801 1409 (HCV-negative serum with interference) (human); assay: Vidas anti-HCV immunoassay: index of the serum on coated HCV Core/NS3/NS4 antigens with 5 ug/ml peptide added (competition)
[2] = biological target: antibodies of human serum sample 498 (HCV-negative serum with interference) (human); assay: as above
[3] = biological target: antibodies of human serum sample 284 2408 (HCV-negative serum with interference) (human); assay: as above
[4] = biological target: antibodies of human serum sample F53 3009 (HCV-negative serum with interference) (human); assay: as above
[5] = biological target: antibodies of human serum sample 175 1811 (HCV-negative serum with interference) (human); assay: as above
[6] = biological target: antibodies of human serum sample M43 (HCV-negative serum with interference) (human); assay: as above
[7] = biological target: antibodies of human serum sample H48 (HCV-negative serum with interference) (human); assay: as above
[8] = biological target: anti-HCV antibodies of positive control sample C1 (commercial serum pool, Trina Bioreactives AG); assay: Vidas anti-HCV immunoassay: index of the positive control on coated HCV Core/NS3/NS4 antigens with 5 ug/ml peptide added (competition)
[9] = biological target: antibodies of human serum sample F25 (HCV-negative serum with interference) (human); assay: Vidas anti-HCV immunoassay: index of the serum on coated HCV Core/NS3/NS4 antigens with 1 ug/ml peptide added (competition)
[10] = biological target: antibodies of human serum sample 295 (HCV-negative serum with interference) (human); assay: as above
[11] = biological target: anti-HCV antibodies of positive control sample C1 (commercial serum pool, Trina Bioreactives AG); assay: Vidas anti-HCV immunoassay: index of the positive control on coated HCV Core/NS3/NS4 antigens with 1 ug/ml peptide added (competition)

Binder | Index [1] | Index [2] | Index [3] | Index [4] | Index [5] | Index [6] | Index [7] | Index [8] | Index [9] | Index [10] | Index [11]
YSPTHYVPE [peptide Y7E-1 (Staphylococcus aureus)] | 0.71 index | 0.14 index | 0.86 index | 0.32 index | 0.47 index | 0.17 index | 0.88 index | 3.02 index |  |  | 
VSPTHYVPE [peptide V7E (HCV)] | 1.04 index | 0.35 index | 1.51 index | 0.39 index | 0.49 index | 0.42 index | 1.17 index | 3.06 index |  |  | 
AQKRLAPYIE [peptide A8E (Streptococcus pneumoniae)] |  |  |  |  |  |  |  |  | 0.41 index | 0.95 index | 3.02 index
ECSQHLPYIE [peptide E8E (HCV)] |  |  |  |  |  |  |  |  | 0.85 index | 0.9 index | 2.92 index
APYIEKGM [peptide A6M (Streptococcus pneumoniae)] |  |  |  |  |  |  |  |  | 2.9 index | 1.04 index | 3.05 index
